Measurements as given in patent publication US20260265393A1 (SHANGHAI CELGEN BIO PHARMACEUTICAL, published 2026).
Numbering of substitutions follows the chain as printed. Several values for one entry are separate records, joined by “and”; a condition that tells them apart may be missing. Identical values can stand only once. Like-named read-outs stand apart in the source and are kept apart here. Blank lines part the entries; values can stand above or below the binder they belong to.

How the values were obtained:
CD27-mFc (Kangdai) [1] = target: T1, CD27-mFc (Kangdai) (human, UniProt P26842 21-192, limits assumed); assay: ELISA on coated CD27-mFc
T1 construct: Bought reagent; also called antigen CD27-mFc; solid-phase human CD27; not shown: mouse Fc (mFc)
T1 sequence (looked up): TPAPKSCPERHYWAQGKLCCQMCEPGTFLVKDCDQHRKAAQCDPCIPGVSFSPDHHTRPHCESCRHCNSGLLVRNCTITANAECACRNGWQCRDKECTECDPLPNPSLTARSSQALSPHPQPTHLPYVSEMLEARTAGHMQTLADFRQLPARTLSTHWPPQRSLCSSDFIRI

[2] = target: T2, antigen CD27 (soluble, as used in the BLI and SPR experiments) (UniProt P26842 21-192, limits assumed); assay: BLI, antibody captured on AHC probe, CD27 in solution
T2 sequence (looked up): T1 sequence (looked up)

[3] = target: T3, human CD27 (transmembrane protein) on the cell membrane (human, UniProt P26842 20-260); assay: flow cytometry on CHO cells expressing human CD27
T3 construct: whole, on cells; One molecule is used for CD27 on CHO-CD27 cells, on human PBMC T and B cells and on Jurkat reporter cells; also called CHO-CD27
T3 sequence (looked up): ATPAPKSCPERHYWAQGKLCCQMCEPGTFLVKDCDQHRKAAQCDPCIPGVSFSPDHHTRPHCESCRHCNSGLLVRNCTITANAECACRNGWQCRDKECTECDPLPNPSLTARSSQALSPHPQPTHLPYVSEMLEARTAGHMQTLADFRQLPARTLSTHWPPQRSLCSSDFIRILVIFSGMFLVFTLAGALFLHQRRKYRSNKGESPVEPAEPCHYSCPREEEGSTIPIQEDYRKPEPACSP

mouse CD27 = target: T4, mouse CD27 (mouse, UniProt P41272 24-182, limits assumed); assay: hybridoma screening; format not described
T4 sequence (looked up): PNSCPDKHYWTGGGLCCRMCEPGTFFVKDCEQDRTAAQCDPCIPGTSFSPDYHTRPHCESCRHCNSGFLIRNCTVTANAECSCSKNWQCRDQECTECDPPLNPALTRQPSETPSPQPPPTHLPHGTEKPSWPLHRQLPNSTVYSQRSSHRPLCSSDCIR

[4] = target: T2, antigen CD27 (soluble, as used in the …); assay: SPR, Biacore T200, CM5 chip
CD27-mFc (Kangdai) [5] = target: T1, CD27-mFc (Kangdai); assay: ELISA on coated CD27-mFc; remark: listed apart in the source
CD27-mFc (Kangdai) [6] = target: T1, CD27-mFc (Kangdai); assay: competition ELISA: CD70 coated, CD27-mFc plus antibody dilutions; competitor CD70
[7] = target: T3, human CD27 (transmembrane protein) on …; assay: flow cytometry on CHO cells expressing human CD27; remark: listed apart in the source
CD27-mFc (Kangdai) [8] = target: T1, CD27-mFc (Kangdai); assay: competition ELISA: CD70 coated, CD27-mFc plus antibody dilutions; competitor CD70; remark: listed apart in the source
CD27-mFc (Kangdai) [9] = target: T1, CD27-mFc (Kangdai); assay: ELISA on coated CD27-mFc; remark: listed apart in the source
[10] = target: T5, human CD64 on CHO-K cells (CHO-CD64) (human, UniProt P12314 16-374); assay: flow cytometry on CHO-CD64 cells, FITC anti-human Fc detection (Example 16)
T5 construct: whole, on cells; also called membrane CD64

CD27-mFc (Kangdai) [11] = target: T1, CD27-mFc (Kangdai); assay: ELISA on coated CD27-mFc (1 ug/mL), AP anti-human Fc detection, absorption at 405/490 nm (Example 15.2)
CD27-mFc (Kangdai) [12] = target: T1, CD27-mFc (Kangdai); assay: competition ELISA: coated CD70 (1 ug/mL), CD27-mFc plus antibody dilution, HRP anti-mouse Fc detection, absorption at 450/655 nm (Example 15.3); blocked ligand CD70
[13] = target: T6, human CD32a on Jurkat cells (Jurkat-CD32a) (human, UniProt P12318 34-317); assay: flow cytometry on Jurkat-CD32a cells, FITC anti-human Fc detection (Example 16)
T6 construct: whole, on cells; also called membrane CD32a
T6 sequence (looked up): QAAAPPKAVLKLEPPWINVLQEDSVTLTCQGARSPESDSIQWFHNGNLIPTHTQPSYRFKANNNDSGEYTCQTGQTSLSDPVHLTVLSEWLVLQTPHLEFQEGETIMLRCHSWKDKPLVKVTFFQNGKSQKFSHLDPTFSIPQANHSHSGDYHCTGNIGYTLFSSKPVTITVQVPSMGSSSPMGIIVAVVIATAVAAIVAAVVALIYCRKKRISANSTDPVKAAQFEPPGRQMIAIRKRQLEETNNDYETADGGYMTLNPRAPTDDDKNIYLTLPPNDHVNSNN

CD27-mFc (Kangdai) [14] = target: T1, CD27-mFc (Kangdai); assay: competition ELISA: CD70 coated, CD27-mFc 4.3 µg/mL plus antibody dilutions; competitor CD70

T5 sequence (P12314 16-374): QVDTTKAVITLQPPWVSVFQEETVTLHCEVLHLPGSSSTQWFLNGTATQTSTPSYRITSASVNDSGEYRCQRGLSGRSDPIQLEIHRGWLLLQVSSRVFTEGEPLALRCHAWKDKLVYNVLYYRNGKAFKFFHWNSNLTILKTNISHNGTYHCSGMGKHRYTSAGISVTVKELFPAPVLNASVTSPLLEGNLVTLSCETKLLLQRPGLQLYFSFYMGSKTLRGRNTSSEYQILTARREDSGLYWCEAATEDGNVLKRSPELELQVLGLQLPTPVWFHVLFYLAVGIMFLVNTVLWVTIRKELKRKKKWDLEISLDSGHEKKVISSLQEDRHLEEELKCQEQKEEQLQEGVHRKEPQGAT

EC50 (CD27-mFc (Kangdai) [1]): 0.0754 µg/mL
Kd [2]: 1.3 nM
koff [2]: 0.00016 s⁻¹
kon [2]: 123000 M⁻¹ s⁻¹
EC50 [3]: ~90.6 µg/mL
B1: 17H8-hFc human-mouse chimeric CD27 monoclonal antibody (antibody, V domains shown)
VH: EVKLEESGGGLVQPGGSMKLSCVASGFTFSNYWMNWVRQSPEKGLEWVAEIRLKSNNYATYYAESVKGRFTISRDDSKSSVYLQMNSLRGEDTGIYYCTLYDSSYYYAMDYWGQGTSVTVSS
VL: DVVLTQTPLSLPVNIGDQASISCKSTQSLLHSDGFTYLDWYLQKPGQSPQLLIYLVSNRFLGVPDRFSGSGSRTDFTLKISRVEAEDLGVYYCFQSNYLPLTFGGGTKLEI
notes: Mouse 17H8 variable regions on human constant regions

binding result (mouse CD27): no binding
B2: 17H8 anti-human CD27 mouse monoclonal antibody (hybridoma clone) (antibody, V domains shown)
VH: B1 VH
VL: B1 VL
notes: also called 17H8-1-1

Kd [4]: 0.391 nM
koff [4]: 0.000684 s⁻¹
kon [4]: 1.75e+06 M⁻¹ s⁻¹
EC50 (CD27-mFc (Kangdai) [5]): 0.0418 µg/mL and 0.28 nM
IC50 (CD27-mFc (Kangdai) [6]): 1.95 µg/mL and 13.1 nM
EC50 [7]: 0.211 µg/mL and 1.41 nM
B3: 13B3-huH2L3 (P33430) humanized CD27 monoclonal antibody (antibody, human IgG1)
heavy: not shown
VL: DIVLTQSPATLSVSPGERVTLSCRASQSVSNSLHWYQQKPGQAPRLLIMYTSQSISGIPARFSGSGSGTDFTLTISSVEPEDFAVYYCQQSNSWPLTFGGGTKLELK
notes: also called huVH2 + huVL3

EC50 (CD27-mFc (Kangdai) [5]): 0.0361 µg/mL and 0.242 nM
IC50 (CD27-mFc (Kangdai) [6]): 1.75 µg/mL and 11.7 nM
EC50 [7]: 0.242 µg/mL and 1.62 nM
B4: 13B3-huH3L4 (P33434) humanized CD27 monoclonal antibody (antibody, V domains shown)
VH: QVQLVQSGAEVKKPGASVKVSCKTSGYAFSQSWMNWVRQAPGQGLEWIGRIYPGDGDTNYNGIFQGRVTLTADTSISTAYMELSRLRSDDTAVYYCASMIRTTYVMDHWGQGTTVTVSS
VL: B3 VL with D1E, V13L, V19A, V78L
notes: also called huVH3 + huVL4

IC50 (CD27-mFc (Kangdai) [6]): 1.91 µg/mL and 12.8 nM
B5: 13B3-huH4L3 (P33432) humanized CD27 monoclonal antibody (antibody, V domains shown)
VH: B4 VH with I48M, N61A, G62Q, I63K, L70M
VL: B3 VL

EC50 (CD27-mFc (Kangdai) [5]): 0.0409 µg/mL and 0.274 nM
IC50 (CD27-mFc (Kangdai) [8]): 1.31 µg/mL
IC50 (CD27-mFc (Kangdai) [6]): 1.91 µg/mL and 12.8 nM
EC50 [7]: 0.224 µg/mL and 1.5 nM
EC50 (CD27-mFc (Kangdai) [9]): 0.029 µg/mL
EC50 (read off the curve) [10]: ~0.7 µg/mL
B6: 13B3-huH2L4 (P33433) humanized CD27 monoclonal antibody (antibody, human IgG1)
heavy: not shown
VL: B3 VL with D1E, V13L, V19A, V78L
notes: also called huVH2 + huVL4; parent antibody (wild-type)

IC50 (CD27-mFc (Kangdai) [8]): 1.09 µg/mL
EC50 (CD27-mFc (Kangdai) [11]): 0.037 µg/mL
B7: 13B3-huH2L3 (LALA) variant antibody (antibody, human IgG1, L234A L235A)
heavy: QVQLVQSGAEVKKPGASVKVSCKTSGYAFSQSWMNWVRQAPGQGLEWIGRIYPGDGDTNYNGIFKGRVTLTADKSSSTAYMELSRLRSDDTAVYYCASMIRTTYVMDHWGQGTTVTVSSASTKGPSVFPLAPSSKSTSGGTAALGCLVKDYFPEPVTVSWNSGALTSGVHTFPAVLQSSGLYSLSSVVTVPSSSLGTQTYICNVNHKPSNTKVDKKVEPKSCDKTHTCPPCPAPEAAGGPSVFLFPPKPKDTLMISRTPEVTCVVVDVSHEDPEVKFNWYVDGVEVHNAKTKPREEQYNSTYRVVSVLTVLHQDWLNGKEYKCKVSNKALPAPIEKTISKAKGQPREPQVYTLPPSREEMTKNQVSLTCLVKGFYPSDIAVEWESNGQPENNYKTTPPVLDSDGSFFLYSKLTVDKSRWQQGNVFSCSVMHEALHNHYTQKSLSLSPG
VL: B3 VL
notes: The light chain is that of 13B3-huH2L3 (huVL3)

IC50 (CD27-mFc (Kangdai) [12]): 1.12 µg/mL
EC50 (CD27-mFc (Kangdai) [9]): 0.029 µg/mL
binding result [10]: no binding (tested: 10 µg/mL)
binding result [13]: no binding (tested: 10 µg/mL)
B8: 13B3-huH2L4 (LALA) variant antibody (antibody, human IgG1, L234A L235A)
heavy: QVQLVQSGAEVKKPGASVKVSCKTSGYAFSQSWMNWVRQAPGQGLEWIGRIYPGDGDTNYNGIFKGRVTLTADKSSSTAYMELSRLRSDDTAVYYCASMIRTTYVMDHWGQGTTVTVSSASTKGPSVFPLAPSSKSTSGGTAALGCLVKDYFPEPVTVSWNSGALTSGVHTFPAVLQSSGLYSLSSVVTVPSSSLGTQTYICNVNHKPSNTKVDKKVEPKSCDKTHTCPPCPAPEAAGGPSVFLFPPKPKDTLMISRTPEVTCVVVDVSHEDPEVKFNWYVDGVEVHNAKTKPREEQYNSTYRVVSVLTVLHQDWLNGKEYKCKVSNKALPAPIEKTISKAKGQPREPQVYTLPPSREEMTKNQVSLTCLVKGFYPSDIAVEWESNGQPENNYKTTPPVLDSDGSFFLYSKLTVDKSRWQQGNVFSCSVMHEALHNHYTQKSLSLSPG
VL: B3 VL with D1E, V13L, V19A, V78L
notes: The light chain is that of 13B3-huH2L4 (huVL4); also called mutant antibody

Kd [4]: 0.699 nM
koff [4]: 0.00135 s⁻¹
kon [4]: 1.93e+06 M⁻¹ s⁻¹
EC50 (CD27-mFc (Kangdai) [5]): 0.0371 µg/mL and 0.249 nM
EC50 [7]: 0.19 µg/mL and 1.27 nM
B9: 13B3-huH4L1 (P33425) humanized CD27 monoclonal antibody (antibody, V domains shown)
VH: B4 VH with I48M, N61A, G62Q, I63K, L70M
VL: EIVLTQSPDFLSVTPKEKVTLTCRASQSVSNSLHWYQQKPDQSPKLLIMYTSQSISGIPSRFSGSGSGTDFTLTINSVEAEDAATYYCQQSNSWPLTFGGGTKLELK
notes: also called huVH4 + huVL1

Kd [4]: 0.643 nM
koff [4]: 0.00106 s⁻¹
kon [4]: 1.65e+06 M⁻¹ s⁻¹
EC50 (CD27-mFc (Kangdai) [5]): 0.0486 µg/mL and 0.325 nM
IC50 (CD27-mFc (Kangdai) [6]): 1.92 µg/mL and 12.8 nM
EC50 [7]: 0.221 µg/mL and 1.48 nM
B10: 13B3-huH2L2 (P33426) humanized CD27 monoclonal antibody (antibody, V domains shown)
VH: B4 VH with Q65K, T74K, I76S
VL: IVLTQSPDFQSVTPKEKVTITCRASQSVSNSLHWYQQKPDQSPKLLIMYTSQSISGVPSRFSGSGSGTDFTLTINSLEAEDAATYYCQQSNSWPLTFGGGTKLELK
notes: also called huVH2 + huVL2

IC50 (CD27-mFc (Kangdai) [14]): 1.47 µg/mL
Kd [4]: 0.781 nM
koff [4]: 0.000954 s⁻¹
kon [4]: 1.22e+06 M⁻¹ s⁻¹
EC50 (CD27-mFc (Kangdai) [5]): 0.0503 µg/mL and 0.337 nM
IC50 (CD27-mFc (Kangdai) [6]): 2.06 µg/mL and 13.8 nM
EC50 (CD27-mFc (Kangdai) [1]): 0.0344 µg/mL
Kd [2]: 1.23 nM
koff [2]: 0.000222 s⁻¹
kon [2]: 181000 M⁻¹ s⁻¹
EC50 [3]: 2.49 µg/mL
B11: 13B3-hFc human-mouse chimeric CD27 monoclonal antibody (antibody, V domains shown)
VH: QVQLQQSGPEQVKPGASVKISCKTSGYAFSQSWMNWVKQRPGQGLEWIGRIYPGDGDTNYNGIFKGKATLTADKSSSTAYMQLSSLTSLDSAVYFCASMIRTTYVMDHWGQGTSVTVTS
VL: DIVLTQSPATLSVTPGDSVSLSCRASQSVSNSLHWYQQKSHESPRLLIMYTSQSISGIPSRFSGSGSGTDFTLSINSVETEDFGMYFCQQSNSWPLTFGAGTKLELK
notes: Mouse 13B3 variable regions on human constant regions (expression vectors P378 and P379, made in 293F cells)

binding result (mouse CD27): no binding
B12: 13B3 anti-human CD27 mouse monoclonal antibody (hybridoma clone) (antibody, V domains shown)
VH: B11 VH
VL: B11 VL
notes: also called 16B1-1-1

binding result (mouse CD27): no binding
B13: 16B1 anti-human CD27 mouse monoclonal antibody (hybridoma clone) (antibody, V domains shown)
VH: B11 VH
VL: B11 VL
notes: Tested as hybridoma supernatant; also called 16B1-1-1
